Paper PMC3328597

Experiments:
[1] = molecular target: His168 (UniProt position 168, …); assay: NMR; conditions: 50 mM NaCl; 20 mM Tris acetate; free Thr171-phosphorylated peptide, no RNA
[2] = molecular target: His161 (UniProt position 161, …); assay: NMR; conditions: 50 mM NaCl; 20 mM Tris acetate; free Thr171-phosphorylated peptide, no RNA

HLRQPGIHPKTPNKFKKYSR
pKa [1]: 5.6
pKa [2]: 6.4
